Results from PMC8167871, “Three‐dimensional structures of avian beta‐microseminoproteins: insight from the chicken egg‐specific beta‐microseminoprotein 3 paralog” (FEBS Open Bio, 2021).

Target: the molecule itself
Assay: MALDI-TOF mass spectrometry; top-down analysis of purified MSMB3 without any reduction or alkylation

B1: chicken beta-microseminoprotein 3 (MSMB3), proteoform lacking the C-terminal glycine, MSMB3(-G) (natural protein, chicken (Gallus gallus))
chain: RCYFRTSSKYGCISNRNLYVFGAVWKTEDCYQCKCKMNAMVCCSLVSIPKNYDRVNCVGLFHKKSCSIRVVKKTDPDISCKVYNGV
modifications: five disulfide bridges (C2-C43, C12-C35, C30-C66, C33-C42, C57-C80); delta mass of -1 Da on two lysines, especially K63 (potential oxidation of the lysine residue)
notes: chicken (Gallus gallus) MSMB3, mature protein without its C-terminal G87 (major proteoform of the purified sample, residues 1-86); numbers count on: the mature protein; The dimer seen by mass spectrometry and the crystal structure are of MSMB3(-G); the NMR sample is called only MSMB3; also called Gga-MSMB3; Gga-MSMB3 without G
- stoichiometry N: 2
